Consider 1 molecule from publication PMC6093649.

The target in this test is T1, Chp2 chromodomain (recombinant Chp2-CD, wild type) (S. pombe).
T1 sequence (O42934 whole entry, looked up): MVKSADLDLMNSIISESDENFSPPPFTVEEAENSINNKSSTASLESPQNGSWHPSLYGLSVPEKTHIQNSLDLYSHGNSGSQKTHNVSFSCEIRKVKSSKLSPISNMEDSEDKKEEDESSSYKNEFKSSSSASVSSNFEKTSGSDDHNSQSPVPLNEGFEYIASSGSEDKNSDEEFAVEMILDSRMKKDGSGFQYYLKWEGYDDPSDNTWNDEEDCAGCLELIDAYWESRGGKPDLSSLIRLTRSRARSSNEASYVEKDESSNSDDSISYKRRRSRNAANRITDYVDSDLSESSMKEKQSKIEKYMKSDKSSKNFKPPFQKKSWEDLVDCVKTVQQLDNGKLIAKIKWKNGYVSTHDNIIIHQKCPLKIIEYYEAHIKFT
Briefly: ITC; MicroCal VP-ITC, 20°C; Chp2-CD protein in 20 mM KPO4 pH 6.8, 100 mM NaCl; H3K9me3 peptide injected into the protein in 1-μl aliquots at 3-min intervals. (Isothermal titration calorimetry measures the heat released or taken up as one component is titrated into another.)

In general, Kd refers to a measure of binding affinity in units of concentration.

B1: K9-trimethylated histone H3 (H3K9me3) peptide (1–18) (peptide)
peptide: ARTKQTARKSTGGKAPRY
modifications: trimethyl-lysine at position 9 (Lys[Me]3)
For B1, the Kd stood at 4.37 µM.
